In doi:10.1101/638320, “Analyzing the weak dimerization of a cellulose binding module by sedimentation velocity experiments” (bioRxiv, 2019):

Tests used:
[1] = target: the molecule itself; assay: AUC; loading concentration 0.50 mg/mL (27.07 uM)
[2] = target: the molecule itself; assay: AUC; sedimentation velocity, absorbance at 280 nm, 50 000 rpm, 20 °C, PBS (137 mM NaCl, 2.7 mM KCl, 10 mM Na2HPO4, 1.8 mM KH2PO4, pH 7.35), 0.05 to 0.7 g/L; UltraScan III (2DSA, GA, GAMC, van Holde-Weischet; KD by discrete model genetic algorithm); dimer to monomers
[3] = target: the molecule itself; assay: AUC; loading concentration 0.70 mg/mL (37.90 uM)

B1: CBM_(CipA), cellulose binding module of the cellulosome anchoring protein CipA (domain or fragment, Clostridium thermocellum)
chain: MGNLKVEFYNSNPSDTTNSINPQFKVTNTGSSAIDLSKLTLRYYYTVDGQKDQTFWCDHAAIIGSNGSYNGITSNVKGTFVKMSSSTNNADTYLEISFTGGTLEPGAHVQIQGRFAKNDWSNYTQSNDYSFKSASQFVEWDQVTAYLNGVLVWGKEPLE
notes: abstract: Clostridium thermocellum, introduction: Cellulomonas fimi; differs from PDB 1NBC by the polyHis tag and two amino acids at the beginning and the end; Calculated monomer mass 18469 Da; Gene codon optimised for E. coli, in a modified pET28a(+); also called CMB_(CipA); source: E. coli BL21 (DE3), purified (heating to 70 °C, IMAC on HisTrap, desalting); not shown: His6, C-terminal, kept
[1]
  Kd: 93.9 µM
[2]
  Kd: ~87 µM
  stoichiometry N: 2
[3]
  Kd: 80.5 µM
